Results from publication PMC9071374, “Identification of a WRKY transcriptional activator from Camellia sinensis that regulates methylated EGCG biosynthesis”.

B1: CsDFR promoter W-box probe (dsDNA)
DNA 1: GCCCAAGCTCATATAGTCAAAAAAGTCAAAAAGCCAAAAAGTCAACCCACTTCCC
DNA 2: GGGAAGTGGGTTGACTTTTTGGCTTTTTGACTTTTTTGACTATATGAGCTTGGGC
B2: CCoAOMT promoter W-box probe (dsDNA)
DNA 1: TTTACTTAAAATATGGATTTTGACTTGTGATATAAAAAATTATAAATATTTT
DNA 2: AAAATATTTATAATTTTTTATATCACAAGTCAAAATCCATATTTTAAGTAAA

Target: CsWRKY57like (WRKY domain) (Camellia sinensis, UniProt A0A4S4EXI7 145-222)
Sequence (A0A4S4EXI7 entry or part of it): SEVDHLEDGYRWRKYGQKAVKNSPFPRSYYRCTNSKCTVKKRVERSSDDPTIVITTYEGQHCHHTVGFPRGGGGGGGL
Experiment: EMSA; excess unlabeled probe abolishes binding; Biotin-labeled probes, 6% native PAGE; buffer, salt, pH and temperature not stated (cited refs 48, 49)
Conditions: protein: recombinant; tags: GST (pGEX-4T); label: biotin

Row | Binder | binding result
1 | B1 | binds
2 | B2 | binds
